The assay concerns the target T1, human angiopoietin 2 (human, UniProt O15123 19-496, limits assumed).
T1 construct: Bought (R&D Systems Cat.No. 623-AN) or produced in house; also called ANG-2; human ANG-2
T1 sequence: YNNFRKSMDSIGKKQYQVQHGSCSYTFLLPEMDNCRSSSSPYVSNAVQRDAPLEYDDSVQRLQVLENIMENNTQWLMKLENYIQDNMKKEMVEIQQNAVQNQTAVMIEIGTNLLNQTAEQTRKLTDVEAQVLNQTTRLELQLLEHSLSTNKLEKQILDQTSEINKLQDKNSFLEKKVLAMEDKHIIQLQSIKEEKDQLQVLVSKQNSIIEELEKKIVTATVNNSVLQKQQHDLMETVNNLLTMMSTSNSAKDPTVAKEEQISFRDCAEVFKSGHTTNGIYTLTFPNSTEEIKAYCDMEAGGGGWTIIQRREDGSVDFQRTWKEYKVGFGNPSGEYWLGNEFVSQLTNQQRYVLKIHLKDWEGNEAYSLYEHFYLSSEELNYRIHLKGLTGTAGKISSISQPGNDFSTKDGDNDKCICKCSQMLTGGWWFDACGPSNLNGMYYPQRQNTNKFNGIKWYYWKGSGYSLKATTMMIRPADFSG
Nature of the assay: ANG-2/Tie2 receptor interaction ELISA; antibody pre-incubated with ANG-2; the IC50 (Table 2) is not given.

B1: <ANG-2> LC06 (antibody, IgG1, V domains shown)
VH: not shown
VL: QPGLTQPPSVSVAPGQTARITCGGNNIGSKSVHWYQQKPGQAPVLVVYDDSDRPSGIPERFSGSNSGNTATLTISRVEAGDEADYYCQVWDSSSDHYVFGTGTKVTVLG
Turning to B1, the binding result is reported as “binds”.
